Experimental data taken from the supplement of paper PMC9112550, “Optimization of the antimicrobial peptide Bac7 by deep mutational scanning” (BMC Biology, 2022).

Test system: Escherichia coli TOP10
Experiment: shrunken log2 fold change of peptide-encoding DNA abundance (4.5 h post-induction vs induction); higher = less antimicrobial activity (less host growth inhibition)
Details: time post-induction: 4.5 h; library: site-saturation at positions 5, 18, 19, 20
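Also: peptides expressed intracellularly from a pBAD plasmid library in pooled LB shake-flask culture, induced with 0.3% L-arabinose, DNA abundance read by NGS, three biological replicates, DESeq2 with apeglm shrinkage.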

| Sequence | shrunken log2 fold change |
| --- | --- |
| RRIRHRPPRLPRPRPRPLPSPRP | 0.393 |
| RRIRHRPPRLPRPRPRPLQVPRP | -0.28 |
| RRIRHRPPRLPRPRPRPLQWPRP | -0.127 |
| RRIRHRPPRLPRPRPRPLRAPRP | 0.513 |
| RRIRHRPPRLPRPRPRPLSEPRP | 0.203 |
| RRIRHRPPRLPRPRPRPLTPPRP | -0.119 |
| RRIRHRPPRLPRPRPRPLTSPRP | -0.246 |
| RRIRHRPPRLPRPRPRPLVDPRP | -0.219 |
| RRIRHRPPRLPRPRPRPLYAPRP | -0.402 |
| RRIRHRPPRLPRPRPRPLYRPRP | -0.343 |
| RRIRHRPPRLPRPRPRPMAMPRP | 0.00505 |
| RRIRHRPPRLPRPRPRPMEIPRP | -0.0801 |
| RRIRHRPPRLPRPRPRPMENPRP | 0.00439 |
| RRIRHRPPRLPRPRPRPMGVPRP | -0.00663 |
| RRIRHRPPRLPRPRPRPMHHPRP | -0.154 |
| RRIRHRPPRLPRPRPRPMHIPRP | -1.93 |
| RRIRHRPPRLPRPRPRPMHKPRP | 0.227 |
| RRIRHRPPRLPRPRPRPMHLPRP | 0.0317 |
| RRIRHRPPRLPRPRPRPMHVPRP | -0.0591 |
| RRIRHRPPRLPRPRPRPMIWPRP | -0.00298 |
| RRIRHRPPRLPRPRPRPMKNPRP | 0.0372 |
| RRIRHRPPRLPRPRPRPMLSPRP | -0.0786 |
| RRIRHRPPRLPRPRPRPMMSPRP | 0.0372 |
| RRIRHRPPRLPRPRPRPMNLPRP | -0.0351 |
| RRIRHRPPRLPRPRPRPMQLPRP | -0.366 |

| Sequence | shrunken log2 fold change |
| --- | --- |
| RRIRHRPPRLPRPRPRPMQMPRP | -0.00907 |
| RRIRHRPPRLPRPRPRPMRMPRP | -0.00476 |
| RRIRHRPPRLPRPRPRPMRRPRP | 0.00585 |
| RRIRHRPPRLPRPRPRPMSFPRP | -0.089 |
| RRIRHRPPRLPRPRPRPMSQPRP | -0.151 |
| RRIRHRPPRLPRPRPRPMWFPRP | -0.218 |
| RRIRHRPPRLPRPRPRPMWPPRP | 0.0906 |
| RRIRHRPPRLPRPRPRPMWVPRP | -0.015 |
| RRIRHRPPRLPRPRPRPMYAPRP | -0.0133 |
| RRIRHRPPRLPRPRPRPNCIPRP | -0.753 |
| RRIRHRPPRLPRPRPRPNEQPRP | -0.0176 |
| RRIRHRPPRLPRPRPRPNGCPRP | -0.0302 |
| RRIRHRPPRLPRPRPRPNGKPRP | -0.335 |
| RRIRHRPPRLPRPRPRPNGPPRP | -0.0992 |
| RRIRHRPPRLPRPRPRPNITPRP | -0.489 |
| RRIRHRPPRLPRPRPRPNLKPRP | -0.465 |
| RRIRHRPPRLPRPRPRPNMEPRP | -0.0709 |
| RRIRHRPPRLPRPRPRPNMMPRP | -0.263 |
| RRIRHRPPRLPRPRPRPNNMPRP | -0.674 |
| RRIRHRPPRLPRPRPRPNNSPRP | -1.11 |
| RRIRHRPPRLPRPRPRPNPVPRP | -0.312 |
| RRIRHRPPRLPRPRPRPNQCPRP | -0.201 |
| RRIRHRPPRLPRPRPRPNRVPRP | -0.672 |
| RRIRHRPPRLPRPRPRPNSQPRP | -0.346 |
| RRIRHRPPRLPRPRPRPNVPPRP | -0.0223 |

| Sequence | shrunken log2 fold change |
| --- | --- |
| RRIRHRPPRLPRPRPRPNYHPRP | -0.83 |
| RRIRHRPPRLPRPRPRPNYNPRP | -0.89 |
| RRIRHRPPRLPRPRPRPNYVPRP | -0.0206 |
| RRIRHRPPRLPRPRPRPPAHPRP | 0.0763 |
| RRIRHRPPRLPRPRPRPPAPPRP | 0.466 |
| RRIRHRPPRLPRPRPRPPCDPRP | -0.22 |
| RRIRHRPPRLPRPRPRPPCKPRP | -0.196 |
| RRIRHRPPRLPRPRPRPPEHPRP | -0.116 |
| RRIRHRPPRLPRPRPRPPILPRP | -0.0767 |
| RRIRHRPPRLPRPRPRPPKGPRP | 0.113 |
| RRIRHRPPRLPRPRPRPPKQPRP | -0.00419 |
| RRIRHRPPRLPRPRPRPPLHPRP | 0.0208 |
| RRIRHRPPRLPRPRPRPPLIPRP | -0.0533 |
| RRIRHRPPRLPRPRPRPPLNPRP | -0.0242 |
| RRIRHRPPRLPRPRPRPPMDPRP | -0.309 |
| RRIRHRPPRLPRPRPRPPMHPRP | -0.0169 |
| RRIRHRPPRLPRPRPRPPPDPRP | 0.646 |
| RRIRHRPPRLPRPRPRPPPIPRP | 0.361 |
| RRIRHRPPRLPRPRPRPPQDPRP | 0.0355 |
| RRIRHRPPRLPRPRPRPPRLPRP | 0.0241 |
| RRIRHRPPRLPRPRPRPPRWPRP | 0.137 |
| RRIRHRPPRLPRPRPRPPSFPRP | -0.234 |
| RRIRHRPPRLPRPRPRPPTTPRP | -0.175 |
| RRIRHRPPRLPRPRPRPPVMPRP | -0.0747 |
| RRIRHRPPRLPRPRPRPPWDPRP | 0.131 |
